# Source: the RNAGym collection of RNA variant scans (doi:10.7554/elife.80360)
# B1: HDV Ribozyme (parent)
# chain: GGCCGGCAUGGUCCCAGCCUCCUCGCUGGCGCCGGCUGGGCAACAUUCCGAGGGGACCGUCCCCUCGGUAAUGGCGAAUGGGACCCA
# Variants of: B1
# Test: self-cleavage, relative activity (ratio to wild type); higher = more cleavage; co-transcriptional
row,Variant,self-cleavage
1,A43G G81C,0
2,G31C C85G,0.341
3,C7A U37A,0.229
4,G2C G6C,0.0386
5,A16G G54C,1.08
6,C15A A70C,0.554
7,U27C C75A,0.155
8,C4A G10A,0.0554
9,G25U C75A,0.0941
10,A43G C58A,0.629
11,G25A C44U,0.107
12,U20C C32G,0.138
13,G6U C26G,0.364
14,C36A U60G,0.178
15,U72G G76U,0.646
16,G39A C62G,0.129
17,G29C C49A,0.222
18,C22A A78U,0
19,U27C C48A,1.02
20,G17A A77C,0.0978
21,G59U A71U,0.862
22,C15G G40A,0.762
23,U9G A42U,0.587
24,U72A G74U,0.397

row,Variant,self-cleavage
1,G54C C64A,0.574
2,G10C C44U,0.582
3,G31A G35U,0.102
4,U60A G80C,0.0354
5,C13G C33G,0.0462
6,G29C A42C,0
7,G59A U72A,0.698
8,C21A C48G,0.122
9,G11C C84G,0.831
10,C58U G68A,0.855
11,A45U G80C,0
12,C13U G40U,0.117
13,G1U G17A,0.212
14,C19A C48G,0.22
15,G34U A77U,0.163
16,G1C A83C,0.185
17,G6A A78G,0.554
18,G29C C61A,0.0791
19,G68C C85A,1.17
20,G11A G80U,0.0839
21,U23C C61A,0.982
22,C36U U47A,0.481
23,A8U U65G,0.748
24,G11U C57G,0.358

row,Variant,self-cleavage
1,G52U C86G,1.01
2,C3U G73U,0.257
3,C14U C24G,0.121
4,G40A A87U,1.02
5,C44G G74C,0.185
6,G5C C15G,0.249
7,U9G,1.02
8,G25C C62G,0.0615
9,U69G G82C,0.429
10,G34C A45C,0.107
11,C21G G82A,0.101
12,G40A U72G,0.437
13,G40U C64A,0.57
14,U27C A77U,0.262
15,G28A G74A,0.131
16,A43C G82C,0
17,C75U C86G,0.145
18,C22U A51C,0.928
19,C19G C62G,0.0791
20,A42C A51G,0.26
21,C13G U27C,0.262
22,G10C G67C,1.01
23,G25A C58A,0.237
24,U27A G59C,0.939

row,Variant,self-cleavage
1,G31A C63U,0.606
2,G10C C86A,1.04
3,C33A C62A,0.344
4,G25U G55U,0.151
5,G53C G68U,0.475
6,G40C A51C,0.111
7,C3A A83C,0.177
8,C32G C63U,0.112
9,G25U C85A,0.125
10,C26G C44U,1.04
11,G17U C48G,0.482
12,C84A A87U,1.02
13,U20G G67C,0.554
14,A43U C66U,0.575
15,U46G C66A,0.308
16,U27G C44G,0.598
17,C30U U46C,0.0723
18,C14U A45U,0.892
19,A16C C58A,0.582
20,C3U C64A,0.518
21,C19A G55U,0.0923
22,G17A A45C,0.415
23,C14G G80C,0.0723
24,C7G U9C,0

row,Variant,self-cleavage
1,C14U C44A,1.01
2,G6C G11C,0.138
3,C19G C84U,0.0504
4,C21G G40U,0.0308
5,C58A G68C,1.03
6,C7G C13U,0.158
7,C3G A70C,0.508
8,G39A A71U,0.383
9,U12A G38C,0.0489
10,C36U A56U,0.845
11,C14U G29U,0.0739
12,G29U G59A,0.102
13,C58U U60C,1.19
14,C49G C63A,0.489
15,C3G G11C,0.225
16,A16C C18U,0.375
17,G50C C57U,1.04
18,G11A C57A,0.45
19,C49U C84G,0.364
20,U60A A77U,0.453
21,A8C C22A,0.249
22,G25U C57G,0.208
23,G35U A42U,0.246
24,G35U A42G,0.17

row,Variant,self-cleavage
1,A56U A77C,0.341
2,U46G G74C,0.201
3,C48G A70U,0.506
4,C19G G80A,0.131
5,C64A U65C,0.831
6,C14A C41G,0.554
7,C33U G73C,0.31
8,C18U C85U,0.582
9,C3G A83G,0.289
10,G50U C84G,0.724
11,G5C A78U,0.0755
12,U12C C57A,0.268
13,C15U G34C,0.268
14,A16G C22A,0.199
15,U37C G80A,0.267
16,C18A C49G,0.119
17,C32A A77G,0.0426
18,U27C G53C,0.898
19,G25C C75A,0
20,G6U G68U,0.554
21,C4U A8G,0.762
22,U23G C36G,0.252
23,U23C C24G,0.0437
24,C3U G5U,0.107

row,Variant,self-cleavage
1,A56U G68C,0.872
2,A8U C84G,0.462
3,G67C C75U,0.0545
4,G67C C75A,0.0652
5,C15G U47A,0.723
6,C48A U69C,0.892
7,C13G G80A,0
8,C4A C49G,0.302
9,C7G G31A,0.441
10,G29C C32G,0.0639
11,G31A G59U,0.383
12,C61U C63U,0.958
13,C19U A70U,0.169
14,C32G G52U,0.198
15,G34A U46G,0.0332
16,A70G A71C,0.712
17,G1U U72G,0.269
18,C36U C64G,0.606
19,G1C G31A,0.0302
20,A16U G80C,0.145
21,C7U G76U,0.755
22,G6A G29U,0.0563
23,C48U C64U,0.997
24,G29C C30A,0.156

row,Variant,self-cleavage
1,C24A U46C,0.269
2,U47G C64G,0.485
3,G38U U65G,0.233
4,G38A C75A,0.115
5,G6A C64G,0.604
6,U27G G54C,0.914
7,G28U C33G,0.212
8,A83U C86U,0.95
9,G2A G29A,0.0288
10,U37A A51U,0
11,C22A C41G,0.175
12,G31A C61A,0.554
13,U60G A78C,0.151
14,C48G A87C,1.08
15,A56C C86A,0.87
16,C15G C19G,0
17,C3A A71C,0.105
18,C41A G82A,0.223
19,C14G G35U,0
20,G59A A70C,0.982
21,C44U U47C,0.54
22,G5U C49U,0.791
23,G2A G28U,0.0364
24,G55A C62G,0.686

row,Variant,self-cleavage
1,A78U G81A,0.182
2,U23A A42C,0.253
3,U12A C15U,0.138
4,U47A C75U,0.203
5,U27A G67A,1.32
6,U27G C84U,0.612
7,C14U G52U,1.04
8,G52A C63A,0.774
9,G5C C61G,0.287
10,C14A G76U,1.27
11,U20G A78U,0
12,U69G A83G,0.739
13,C36U G80A,0.0923
14,C57U G74U,0.548
15,G31A A43U,0.128
16,C15G C63G,0.475
17,G6C U37A,0.0791
18,G52A G68U,0.591
19,G5U C61A,0.399
20,C21U A45C,0.0256
21,A8U C66A,1.06
22,G38C C85U,0.185
23,U47A A78U,0.295
24,U65G A70U,0.892

row,Variant,self-cleavage
1,C13A A56C,0.156
2,A16G A87G,0.892
3,C21U U37A,0.157
4,G1A C66G,0.308
5,U27A G81C,0.356
6,U37G C61G,0
7,C7G C85A,0.302
8,A16G G17A,0.617
9,C57G C66U,0.848
10,U23G U37G,0.217
11,A70U A71G,1.09
12,G54U G73A,0.776
13,C21G G67A,0
14,G67C G76U,1.11
15,C62A C86G,0.975
16,C19A G52U,0.149
17,A45U U46G,0.787
18,A51U G74C,0.243
19,G2A A43G,0.0234
20,C3U G40C,0.26
21,A42U G67U,0.346
22,A71G G80A,0.288
23,C3U C30A,0.223
24,C48G C57U,1.04

row,Variant,self-cleavage
1,G6A C41U,0.431
2,C36U U46G,0.504
3,C19A A87C,0.148
4,C48G,0.988
5,U47C U60A,0.987
6,C33U U65C,0.969
7,G11C A77C,0.128
8,A71G A77C,0.45
9,U9C U79A,0.831
10,G31C U46A,0.256
11,C22U C86G,0.692
12,G40A G74U,0.732
13,C19G G25U,0.0923
14,G10C C61G,0.808
15,C15U C49U,0.997
16,A78C C86U,0.225
17,G29C U46A,0.178
18,C36A U65G,0.394
19,G80A C84G,0.161
20,C3A U9G,0.985
21,C36U C57G,0.79
22,G52U C58A,0.888
23,U47G C75U,0.305
24,A45U A51U,0.767

row,Variant,self-cleavage
1,C48U A78G,0.522
2,G35C C75A,0.225
3,C18U C61G,0.53
4,C15A U79G,0.831
5,G54U G74C,0.182
6,C30A G59C,0.58
7,C7G U65G,0.199
8,G38C A71G,0.166
9,G52C C62A,0.878
10,C30G A42G,0.0415
11,A51G G82C,0.322
12,G1U G80A,0.355
13,C49U G74A,0.443
14,G2A A51G,0.141
15,A56G G67U,0.997
16,C21A U79G,0.0396
17,G28A G55U,0.056
18,G53U G55U,0.915
19,G10A G76U,0.997
20,G29A U72C,0.0852
21,G31C C63U,0.369
22,C61G G81A,0.219
23,G17C C18A,0
24,C63G U65A,0.415

row,Variant,self-cleavage
1,U65A A78C,0.259
2,G39C A42C,0.244
3,G39A A87G,0.517
4,G11U G80A,0.136
5,C33A G54A,0.253
6,G31A U60G,0.642
7,G39U A87G,0.661
8,G73C G74A,0.422
9,U65C G73A,0.746
10,C63U G67C,0.96
11,C30A C64U,0.554
12,G50U A77U,0.62
13,G5C A87U,0.175
14,C57A G73A,0.708
15,G10U U37A,0.058
16,A42U U47A,0.302
17,G55U U79G,0.591
18,C33U G55U,0.865
19,A78U A83C,0.324
20,G53A U72A,0.642
21,U20A C32U,0.0811
22,C48U C85U,1.14
23,G6C A45U,0.0615
24,A83C C86A,0.554

row,Variant,self-cleavage
1,G17C A45C,0.0519
2,U69G G76C,0.77
3,C63G U72G,0.192
4,U27C G82U,0.208
5,C4G G17A,0.0791
6,C30A G53U,0.443
7,C26A G53U,0.932
8,A43U G59U,0.783
9,G55C G82U,0.277
10,C61G C63G,0.481
11,C22A C61U,0.237
12,C14G G40U,0.0594
13,C14U C49G,0.831
14,A8U G10C,0.639
15,G1A A8G,0.166
16,C14G G34A,0
17,C18U G29A,1.06
18,U9G C36U,0.864
19,G17U G82U,0.361
20,C19A A78G,0.0845
21,C4U A77U,0.415
22,C32G G73A,0.0615
